Experimental data: article PMC10397247
Each block holds one binder with its values, some of them ahead of it.

Key:
P7A-bA = molecular target: T1, P7A-bA; test: two-hybrid library CCNG1;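 note: natural log of median RNA to DNA barcode read ratio; higher means stronger binding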
T1 chain: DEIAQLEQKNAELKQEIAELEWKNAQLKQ

P8A-bA = molecular target: T2, P8A-bA; test: two-hybrid library CCNG1;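 note: natural log of median RNA to DNA barcode read ratio; higher means stronger binding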
T2 chain: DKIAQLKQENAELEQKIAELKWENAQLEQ

P9A-bA = molecular target: T3, P9A-bA; test: two-hybrid library CCNG1;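 note: natural log of median RNA to DNA barcode read ratio; higher means stronger binding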
T3 chain: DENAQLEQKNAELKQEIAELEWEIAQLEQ

4H797-bA = molecular target: T4, 4H797-bA; test: two-hybrid library CCNG1;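 note: natural log of median RNA to DNA barcode read ratio; higher means stronger binding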
T4 chain: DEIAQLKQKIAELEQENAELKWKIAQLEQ

4H968-bA = molecular target: T5, 4H968-bA; test: two-hybrid library CCNG1;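 note: natural log of median RNA to DNA barcode read ratio; higher means stronger binding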
T5 chain: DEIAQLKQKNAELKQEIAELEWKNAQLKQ

4H918-bA = molecular target: T6, 4H918-bA; test: two-hybrid library CCNG1;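 note: natural log of median RNA to DNA barcode read ratio; higher means stronger binding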
T6 chain: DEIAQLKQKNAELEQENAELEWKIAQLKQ

4H575-bA = molecular target: T7, 4H575-bA; test: two-hybrid library CCNG1
T7 chain: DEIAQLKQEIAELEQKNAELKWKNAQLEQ

4H855-bA = molecular target: T8, 4H855-bA; test: two-hybrid library CCNG1
T8 chain: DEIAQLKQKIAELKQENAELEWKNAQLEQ

4H754-bA = molecular target: T9, 4H754-bA; test: two-hybrid library CCNG1
T9 chain: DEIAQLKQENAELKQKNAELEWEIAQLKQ

4H683-bA = molecular target: T10, 4H683-bA; test: two-hybrid library CCNG1
T10 chain: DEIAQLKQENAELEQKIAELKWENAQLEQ

4H780-bA = molecular target: T11, 4H780-bA; test: two-hybrid library CCNG1
T11 chain: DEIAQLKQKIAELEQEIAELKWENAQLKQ

4H953-bA = molecular target: T12, 4H953-bA; test: two-hybrid library CCNG1
T12 chain: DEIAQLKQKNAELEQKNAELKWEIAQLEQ

4H477-bN = molecular target: T13, 4H477-bN; test: two-hybrid library CCNG1
T13 chain: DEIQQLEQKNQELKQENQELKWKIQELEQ

4H3462-bN = molecular target: T14, 4H3462-bN; test: two-hybrid library CCNG1
T14 chain: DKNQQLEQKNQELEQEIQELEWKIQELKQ

4H3277-bN = molecular target: T15, 4H3277-bN; test: two-hybrid library CCNG1
T15 chain: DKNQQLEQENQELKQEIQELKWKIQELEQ

4H906-bN = molecular target: T16, 4H906-bN; test: two-hybrid library CCNG1
T16 chain: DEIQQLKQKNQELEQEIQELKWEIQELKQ

4H492-bN = molecular target: T17, 4H492-bN; test: two-hybrid library CCNG1
T17 chain: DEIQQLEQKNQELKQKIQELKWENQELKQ

4H348-bN = molecular target: T18, 4H348-bN; test: two-hybrid library CCNG1
T18 chain: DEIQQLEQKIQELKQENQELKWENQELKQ

4H40-bN = molecular target: T19, 4H40-bN; test: two-hybrid library CCNG1
T19 chain: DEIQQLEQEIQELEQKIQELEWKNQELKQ

4H3497-bN = molecular target: T20, 4H3497-bN; test: two-hybrid library CCNG1
T20 chain: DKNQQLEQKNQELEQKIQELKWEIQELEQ

4H591-bN = molecular target: T21, 4H591-bN; test: two-hybrid library CCNG1
T21 chain: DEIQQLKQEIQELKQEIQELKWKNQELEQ

4H626-bN = molecular target: T22, 4H626-bN; test: two-hybrid library CCNG1
T22 chain: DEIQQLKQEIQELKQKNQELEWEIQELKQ

4H754-bN = molecular target: T23, 4H754-bN; test: two-hybrid library CCNG1
T23 chain: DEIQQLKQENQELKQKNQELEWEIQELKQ

4H3628-bN = molecular target: T24, 4H3628-bN; test: two-hybrid library CCNG1
T24 chain: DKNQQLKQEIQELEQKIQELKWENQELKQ

4H3926-bN = molecular target: T25, 4H3926-bN; test: two-hybrid library CCNG1
T25 chain: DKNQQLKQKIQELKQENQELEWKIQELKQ

4H3613-bN = molecular target: T26, 4H3613-bN; test: two-hybrid library CCNG1
T26 chain: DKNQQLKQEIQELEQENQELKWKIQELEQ

4H3298-bN = molecular target: T27, 4H3298-bN; test: two-hybrid library CCNG1
T27 chain: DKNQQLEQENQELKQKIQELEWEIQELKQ

4H741-bN = molecular target: T28, 4H741-bN; test: two-hybrid library CCNG1
T28 chain: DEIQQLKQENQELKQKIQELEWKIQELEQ

P2-AA-1HAA-D = molecular target: T29, P2-AA-1HAA-D; test: two-hybrid library CCmax; details: mean of both orientations
T29 chain: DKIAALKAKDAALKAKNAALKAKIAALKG

P2-AA = molecular target: T30, P2-AA; test: two-hybrid library CCmax; details: mean of both orientations
T30 chain: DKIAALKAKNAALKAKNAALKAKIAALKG

P2-AA-1HAA-T = molecular target: T31, P2-AA-1HAA-T; test: two-hybrid library CCmax; details: mean of both orientations
T31 chain: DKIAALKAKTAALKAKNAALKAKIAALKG

P2-AA-1HAA-I = molecular target: T32, P2-AA-1HAA-I; test: two-hybrid library CCmax; details: mean of both orientations
T32 chain: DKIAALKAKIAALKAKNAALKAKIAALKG

P2-AA-1HAA-V = molecular target: T33, P2-AA-1HAA-V; test: two-hybrid library CCmax; details: mean of both orientations
T33 chain: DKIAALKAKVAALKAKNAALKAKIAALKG

P2-AA-1HAA-E = molecular target: T34, P2-AA-1HAA-E; test: two-hybrid library CCmax; details: mean of both orientations
T34 chain: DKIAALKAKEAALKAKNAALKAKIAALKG

P2-AA-1HAA-S = molecular target: T35, P2-AA-1HAA-S; test: two-hybrid library CCmax; details: mean of both orientations
T35 chain: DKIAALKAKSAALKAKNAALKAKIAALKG

P2-AA-1HAA-R = molecular target: T36, P2-AA-1HAA-R; test: two-hybrid library CCmax; details: mean of both orientations
T36 chain: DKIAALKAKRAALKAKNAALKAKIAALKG

Binder: DEIAQLKQEIAELEQKNAELKWKNAQLEQ [4H575-bA]
interaction score (P7A-bA): -1.17 | interaction score (4H797-bA): -0.567 | interaction score (4H968-bA): -0.872 | interaction score (4H918-bA): 0.24 | interaction score (4H575-bA): -0.354 | interaction score (4H855-bA): 1.12 | interaction score (4H754-bA): -0.786 | interaction score (4H683-bA): -0.37 | interaction score (4H780-bA): -1.33 | interaction score (4H953-bA): -0.885

Binder: DKNQQLEQENQELKQEIQELKWKIQELEQ [4H3277-bN]
interaction score (4H477-bN): -1.11 | interaction score (4H3462-bN): -1 | interaction score (4H3277-bN): 1.19 | interaction score (4H906-bN): -1.79 | interaction score (4H492-bN): -1.45 | interaction score (4H348-bN): -1.89 | interaction score (4H40-bN): 0.44 | interaction score (4H3497-bN): -0.895 | interaction score (4H591-bN): -1.66 | interaction score (4H626-bN): -0.819 | interaction score (4H754-bN): -1.54 | interaction score (4H3628-bN): -0.458 | interaction score (4H3926-bN): -0.4 | interaction score (4H3613-bN): -1.08 | interaction score (4H3298-bN): -0.281 | interaction score (4H741-bN): -0.405

Binder: DEIAALEAESAALEAENAALEAEIAALEG [P1-AA-1HAA-S]
interaction score (P2-AA-1HAA-D): 1.28 | interaction score (P2-AA): 2.06 | interaction score (P2-AA-1HAA-T): 1.87 | interaction score (P2-AA-1HAA-I): 2.17 | interaction score (P2-AA-1HAA-V): 2 | interaction score (P2-AA-1HAA-E): 1.97 | interaction score (P2-AA-1HAA-S): 1.18 | interaction score (P2-AA-1HAA-R): 2.17

Results, then the binder that gave them:

interaction score (P7A-bA): -0.889 | interaction score (P8A-bA): 1.79 | interaction score (P9A-bA): -0.632
Binder: DEIAQLEQKNAELKQEIAELEWKNAQLKQ [P7A-bA]

interaction score (P7A-bA): 0.285 | interaction score (P8A-bA): 0.137 | interaction score (P9A-bA): -1.98
Binder: DKNAQLKQEIAELEQENAELEWKIAQLKQ [P6A-bA]
